The text below walks through data of publication PMC4423959, “The Nucleoid Occlusion SlmA Protein Accelerates the Disassembly of the FtsZ Protein Polymers without Affecting Their GTPase Activity” (PLoS ONE, 2015).

For orientation: stoichiometry N means the number of molecules, sites or subunits per partner or assembly.

The labels stand for the following.
B3: E. coli FtsZ (natural protein, UniProt P0A9A6 1-383, looked up)
chain: MFEPMELTNDAVIKVIGVGGGGGNAVEHMVRERIEGVEFFAVNTDAQALRKTAVGQTIQIGSGITKGLGAGANPEVGRNAADEDRDALRAALEGADMVFIAAGMGGGTGTGAAPVVAEVAKDLGILTVAVVTKPFNFEGKKRMAFAEQGITELSKHVDSLITIPNDKLLKVLGRGISLLDAFGAANDVLKGAVQGIAELITRPGLMNVDFADVRTVMSEMGYAMMGSGVASGEDRAEEAAEMAISSPLLEDIDLSGARGVLVNITAGFDLRLDEFETVGNTIRAFASDNATVVIGTSLDPDMNDELRVTVVATGIGMDKRPEITLVTNKQVQQPVMDRYQQHGMAPLTQEQKPVAKVVNDNAPQTAKEPDYLDIPAFLRKQAD
notes: Cell division protein FtsZ of E. coli; The nucleotide state (GDP: oligomers); In AUC and FCS a tracer share of FtsZ labelled on amine groups with Alexa Fluor 488 (FtsZ-Alexa 488) was mixed with unlabelled FtsZ; also called FtsZ-GDP; FtsZ-GTP; source: isolated as described elsewhere [40]

Where two headings read alike, the source gives them in different places.

The target of series [1] is FtsZ (Escherichia coli) (UniProt P0A9A6). As to conditions: cited from earlier work.
The target is the same in series [2]. Conditions: cited from earlier work. The source holds these as a separate data set.
Series [3] deals with the molecule itself. Kind of series: SEC-MALS; Superdex 200 10/300 GL, 0.5 mL/min, 20°C, working buffer (50 mM Tris-HCl, 300 mM KCl, 2 mM MgCl2, pH 7.5); SlmA 10 μM (also 6 μM), no DNA.
Series [4] has as its target B3. The series can be described thus: fluorescence polarisation; anisotropy titration of FtsZ with 1 mM GTP + regeneration system into SlmA 2 μM with fluorescein-SBScons 0.2 μM (also 1 μM and 10 nM); 20°C, working buffer (50 mM Tris-HCl, 300 mM KCl, 2 mM MgCl2, pH 7.5); 1:1 model, apparent Kd in FtsZ monomer concentration. As to conditions: both partners purified. For orientation: Fluorescence polarisation rises when a labelled molecule tumbles more slowly, as on binding a larger partner.

Series [5] concerns the molecule itself. Kind of series: AUC; sedimentation velocity, 48,000 rpm, 20°C, working buffer (50 mM Tris-HCl, 300 mM KCl, 2 mM MgCl2, pH 7.5); FtsZ-GDP 30 μM total with 6 μM FtsZ-Alexa 488 as tracer, without or with SlmA 15 μM and SBScons 4 μM.
For series [6], the target named is T1, SlmA (UniProt P0C093 1-198).
T1 sequence: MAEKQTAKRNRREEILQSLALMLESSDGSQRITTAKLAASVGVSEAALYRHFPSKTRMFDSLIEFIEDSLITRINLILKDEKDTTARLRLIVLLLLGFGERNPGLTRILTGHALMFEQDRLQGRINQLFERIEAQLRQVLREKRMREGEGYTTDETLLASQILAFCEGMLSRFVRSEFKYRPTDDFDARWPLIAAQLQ
Kind of series: fluorescence anisotropy; 300 mM KCl, 2 mM MgCl2; apparent Kd, 4:1 model; dG 18.0 ± 0.2 kcal/mol; 50 mM Tris-HCl, 300 mM KCl, 2 mM MgCl2, pH 7.5, 20 C; 10 nM labeled SBS in SlmA anisotropy titrations. Conditions: protein: recombinant; tags: SUMO tag cleaved off; chain copies: 4; label: fluorescein on T at position 27 from the 5' end of the antisense strand; blunt.

In series [7] the target is T1, SlmA. The series can be described thus: fluorescence anisotropy; 300 mM KCl, 2 mM MgCl2; apparent Kd, 4:1 model; dG 20.3 ± 0.2 kcal/mol; 50 mM Tris-HCl, 300 mM KCl, 2 mM MgCl2, pH 7.5, 20 C; 10 nM labeled SBS in SlmA anisotropy titrations. Conditions: protein: recombinant; tags: SUMO tag cleaved off; chain copies: 4; label: 5' fluorescein on sense strand (anisotropy); blunt.

Series [8] concerns the target T1, SlmA. The series can be described thus: fluorescence anisotropy; 300 mM KCl, 2 mM MgCl2; apparent Kd, 4:1 model; dG 17.6 ± 0.2 kcal/mol; 50 mM Tris-HCl, 300 mM KCl, 2 mM MgCl2, pH 7.5, 20 C; 10 nM labeled SBS in SlmA anisotropy titrations. As to conditions: protein: recombinant; tags: SUMO tag cleaved off; chain copies: 4; label: 5' fluorescein on sense strand (anisotropy); blunt.

For the molecule SlmA (from UniProt P0C093), in series [1], the Kd was 200 nM. Turning to MinC (from UniProt P18196), the Kd in series [2] is 8000 nM.

B1: SlmA (free, without DNA) (natural protein, E. coli, UniProt P0C093 1-198, looked up)
chain: MAEKQTAKRNRREEILQSLALMLESSDGSQRITTAKLAASVGVSEAALYRHFPSKTRMFDSLIEFIEDSLITRINLILKDEKDTTARLRLIVLLLLGFGERNPGLTRILTGHALMFEQDRLQGRINQLFERIEAQLRQVLREKRMREGEGYTTDETLLASQILAFCEGMLSRFVRSEFKYRPTDDFDARWPLIAAQLQ
notes: Nucleoid occlusion factor SlmA of E. coli; Dimer by SEC-MALLS in the absence of DNA; also called free SlmA; source: purified and cleaved from SUMO protein essentially as described in [31]
As to B1, in series [3], the “stoichiometry N” value is 2.

B2: SlmA·SBS complex (four SlmA monomers, as two dimers, bound to one SBScons DNA) (complex, E. coli, UniProt P0C093 1-198, looked up)
chain: MAEKQTAKRNRREEILQSLALMLESSDGSQRITTAKLAASVGVSEAALYRHFPSKTRMFDSLIEFIEDSLITRINLILKDEKDTTARLRLIVLLLLGFGERNPGLTRILTGHALMFEQDRLQGRINQLFERIEAQLRQVLREKRMREGEGYTTDETLLASQILAFCEGMLSRFVRSEFKYRPTDDFDARWPLIAAQLQ
notes: Nucleoid occlusion factor SlmA of E. coli; same chain as m2; 4:1 SlmA:SBS by sedimentation velocity and SEC-MALLS; also called SlmA SBScons; SlmA:SBScons
Consider B2, for which the Kd in series [4] was 12000 nM. On to B3, for which, in series [5], the binding result was “binds”.

B4: SBS17 (dsDNA)
DNA 1: TCAACGTTAGTGACCATTTACTTACTTTTG
DNA 2: CAAAAGTAAGTAAATGGTCACTAACGTTGA
Take B4: the Kd in series [6] is 190 ± 30 nM.

B5: SBScons (dsDNA)
DNA 1: AAGTAAGTGAGCGCTCACTTACGT
DNA 2: ACGTAAGTGAGCGCTCACTTACTT
With B5, the Kd in series [7] worked out at 25 ± 4 nM.

B6: SBS12 (dsDNA)
DNA 1: CGCGAAGTGAACGCTAACTCACTG
DNA 2: CAGTGAGTTAGCGTTCACTTCGCG
As for B6, the Kd in series [8] was determined as 270 ± 50 nM.
